# How the values were obtained:
# CD8+ T cells = assay: In vitro immunogenicity: T-cell priming with aAPCs loaded with peptide/MHC and anti-CD28, pMHC multimer readout; format: cell-based, human; conditions: HLA-A*02 restricted peptides, percentage of positive wells among evaluable
# Description: FIGS. 3A-3F describe simulation graphs of various peptides of the present disclosure. […] CD8+ T cells were primed using artificial APCs coated with anti-CD28 mAb and HLA-A*02 in complex with SeqID No 1 peptide (FIG. 3C, left panel), SeqID No 5 peptide (FIG. 3D left panel), SeqID No 32 peptide (FIG. 3E, left panel) and SeqID No 220 peptide (FIG. 3F, left panel), respectively. After three cycles of stimulation, the detection of peptide-reactive cells was performed by 2D multimer staining with A*02/SeqID No 1 (FIG. 3C), A*02/SeqID No 5 (D), A*02/SeqID No 32 (FIG. 3E) or A*02/SeqID No 220 (FIG. 3F). Right panels (FIGS. 3C, 3D, 3E and 3F) show control staining of cells stimulated with irrelevant A*02/peptide complexes. Viable singlet cells were gated for CD8+ lymphocytes. Boolean gates helped excluding false-positive events detected with multimers specific for different peptides.
# In order to obtain information regarding the immunogenicity of the TUMAPs of the present invention, the inventors performed investigations using an in vitro T-cell priming assay based on repeated stimulations of CD8+ T cells with artificial antigen presenting cells (aAPCs) loaded with peptide/MHC complexes and anti-CD28 antibody.
# In order to perform in vitro stimulations by artificial antigen presenting cells loaded with peptide-MHC complex (pMHC) and anti-CD28 antibody, the inventors first isolated CD8+ T cells from fresh HLA-A*02 leukapheresis products via positive selection using CD8 microbeads (Miltenyi Biotec, Bergisch-Gladbach, Germany) of healthy donors obtained from the University clinics Mannheim, Germany, after informed consent.
# PBMCs and isolated CD8+ lymphocytes were incubated in T-cell medium (TCM) until use consisting of RPMI-Glutamax (Invitrogen, Karlsruhe, Germany) supplemented with 10% heat inactivated human AB serum (PAN-Biotech, Aidenbach, Germany), 100 U/ml Penicillin/100 μg/ml Streptomycin (Cambrex, Cologne, Germany), 1 mM sodium pyruvate (CC Pro, Oberdorla, Germany), 20 μg/ml Gentamycin (Cambrex). 2.5 ng/ml IL-7 (PromoCell, Heidelberg, Germany) and 10 U/ml IL-2 (Novartis Pharma, Nümberg, Germany) were also added to the TCM at this step.
# Generation of pMHC/anti-CD28 coated beads, T-cell stimulations and readout was performed in a highly defined in vitro system using four different pMHC molecules per stimulation condition and 8 different pMHC molecules per readout condition.
# The purified co-stimulatory mouse IgG2a anti human CD28 Ab 9.3 (Jung et al., 1987) was chemically biotinylated using Sulfo-N-hydroxysuccinimidobiotin as recommended by the manufacturer (Perbio, Bonn, Germany). Beads used were 5.6 μm diameter streptavidin coated polystyrene particles (Bangs Laboratories, Illinois, USA).
# 800.000 beads/200 μl were coated in 96-well plates in the presence of 4×12.5 ng different biotin-pMHC, washed and 600 ng biotin anti-CD28 were added subsequently in a volume of 200 μl. Stimulations were initiated in 96-well plates by co-incubating 1×10^6 CD8+ T cells with 2×10^6 washed coated beads in 200 μl TCM supplemented with 5 ng/ml IL-12 (PromoCell) for 3 days at 37° C. Half of the medium was then exchanged by fresh TCM supplemented with 80 U/ml IL-2 and incubating was continued for 4 days at 37° C. This stimulation cycle was performed for a total of three times. For the pMHC multimer readout using 8 different pMHC molecules per condition, a two-dimensional combinatorial coding approach was used as previously described (Andersen et al., 2012) with minor modifications encompassing coupling to 5 different fluorochromes. Finally, multimeric analyses were performed by staining the cells with Live/dead near IR dye (Invitrogen, Karlsruhe, Germany), CD8-FITC antibody clone SK1 (BD, Heidelberg, Germany) and fluorescent pMHC multimers. For analysis, a BD LSRII SORP cytometer equipped with appropriate lasers and filters was used.
# HLA-A*02:01 = HLA-A*02:01 (Homo sapiens, UniProt P04439, D140Y/D185E/D98H/E176V/E277Q/G131W/G231S/I119V/I121R/I166T/I218V/L300P/L318F/N151K/N90K/P208A/P217A/Q86G/Q94H/R138H/R169H/T345S); assay: MHC binding assay (UV-ligand exchange, β2m ELISA, peptide exchange yield); conditions: binding to HLA-A*02:01
# Summary of the method: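 Peptide-HLA-A*02:01 complexes formed by UV-mediated exchange of a photocleavable ligand; exchange yield measured by streptavidin-capture ELISA detecting β2m with HRP anti-β2m, TMB read at 450 nm. Refolded monomer standards 15-500 ng/ml; samples diluted 100-fold.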
"Peptide Exchange (MHC class I binding score, peptide exchange yield) (HLA-A*02:01)",Substance,Wells positive [%] (CD8+ T cells)
“+++” (>50 = +++),2 (ALHRPDVYL; listed as Homo sapiens) [compound 2],“+” (<20% = +)
“+++” (>50 = +++),17 (ALTKTNLQL; listed as Homo sapiens) [compound 17],“+” (<20% = +)
“+++” (>50 = +++),26 (AVLLVLPLV; listed as Homo sapiens) [compound 26],“+” (<20% = +)
“++++” (>75% = ++++),32 (FIDKFTPPV; listed as Homo sapiens) [compound 32],“++++” (>=70% = ++++)
“+++” (>50 = +++),54 (FLYPFPLALF; listed as Homo sapiens) [compound 54],“+” (<20% = +)
“++++” (>75% = ++++),57 (GLSEISLRL; listed as Homo sapiens) [compound 57],“+” (<20% = +)
“+++” (>50 = +++),69 (GLHQREIFL; listed as Homo sapiens) [compound 69],“+” (<20% = +)
“+++” (>50 = +++),81 (WLVGQEFEL; listed as Homo sapiens) [compound 81],“+” (<20% = +)
“+++” (>50 = +++),86 (HLYPGAVTI; listed as Homo sapiens) [compound 86],“+” (<20% = +)
“+++” (>50 = +++),96 (ILIDKTSFV; listed as Homo sapiens) [compound 96],“+” (<20% = +)
“++++” (>75% = ++++),101 (ILVVIEPLL; listed as Homo sapiens) [compound 101],“+” (<20% = +)
“++” (>20% = ++),102 (IQDRAVPSL; listed as Homo sapiens) [compound 102],“+” (<20% = +)
“+++” (>50 = +++),112 (KTLDVDATYEI; listed as Homo sapiens) [compound 112],“+” (<20% = +)
“+++” (>50 = +++),114 (LIPEGPPQV; listed as Homo sapiens) [compound 114],“+” (<20% = +)
“++++” (>75% = ++++),154 (SLLAELHVLTV; listed as Homo sapiens) [compound 154],“+” (<20% = +)
“+++” (>50 = +++),192 (YIQEYLTLL; listed as Homo sapiens) [compound 192],“+” (<20% = +)
“++++” (>75% = ++++),197 (YLQEVPILTL; listed as Homo sapiens) [compound 197],“+” (<20% = +)
“++++” (>75% = ++++),200 (YMFEEVPIVI; listed as Homo sapiens) [compound 200],“+” (<20% = +)
“++++” (>75% = ++++),201 (YQLELHGIEL; listed as Homo sapiens) [compound 201],“+” (<20% = +)
“+++” (>50 = +++),240 (ILARDILEI; listed as Homo sapiens) [compound 240],“+” (<20% = +)
“+++” (>50 = +++),281 (NLLDDRGMTAL; listed as Homo sapiens) [compound 281],“+” (<20% = +)
“+++” (>50 = +++),307 (LLLTKPTEA; listed as Homo sapiens) [compound 307],“+” (<20% = +)
“++++” (>75% = ++++),320 (TIAPVTVAV; listed as Homo sapiens) [compound 320],“+” (<20% = +)
“+++” (>50 = +++),322 (SLASIHVPL; listed as Homo sapiens) [compound 322],“+” (<20% = +)
“++++” (>75% = ++++),323 (SLDLFNCEV; listed as Homo sapiens) [compound 323],“+” (<20% = +)
“+++” (>50 = +++),332 (VMIQHVENL; listed as Homo sapiens) [compound 332],“+” (<20% = +)
“+++” (>50 = +++),380 (YLDRKLLTL; listed as Homo sapiens) [compound 380],“++++” (>=70% = ++++)
“++++” (>75% = ++++),383 (YLLREWVNL; listed as Homo sapiens) [compound 383],
“++++” (>75% = ++++),384 (YMIGSEVGNYL; listed as Homo sapiens) [compound 384],
“+++” (>50 = +++),385 (YTIPLAIKL; listed as Homo sapiens) [compound 385],

# From patent US11260115B1, “Peptides and combination of peptides for use in immunotherapy against CLL and other cancers” (immatics biotechnologies GmbH, priority 2015, dated 2022)
